Test results from the DeepSol protein solubility set.

Test: soluble on expression in E. coli; label from the status in PepcDB or PDB records

Row | Sequence | soluble on expression in E. coli
1 | MNILQFNVRLAEGGAAGVALDLHLRALQKGLTSHFVYGYGKGGKKSVSHHRYPQVIKQTPRGTAIANIALFRFLNRDLFGNLDNLYRTVIQTSGPLVLHFHVLHSYWLNLADIVTFCEKVKAQKPDVTLVWTLHDHWSVTGRCAFTDGCEGWKSGCQKCPTLSNYPPVRVDRAHQLIDGKRQRFRDMLRLGCRFISPSQHVAEAFNSVYGAGRCQIINNGIDLATEAILAQLSPVPLNPGKPRIAIVAHDLRYDGKTDQRLVHDMMALGEKIELHTFGKFSPFTGQNVVNHGFETDKRKLMSALNEMDALVFSSRVDNYPLILCEALSIGVPVIATHSEAAQEVLAKSGGQTFAATDVLRLAQRRKPEIAQAVFGATLDAFRMRSRVAYSGQQMLEEYVSFYQNLLEHHHHHH | not soluble
2 | MGSDKIHHHHHHMPLPIRDLYTFFVVARAGAMQAAAHELGVTPGAISQRIRSIEDRYGKRLFVRSRDGVSLTASGKALWKEVKSAFAQIETSHNRHIGKDGKTILRISAAPTFAHSFLVSNLASFNEDHPGIRFNIETEDRLADLRSEPIDLAIRHGLGDYAGLRSEWLCAPELIVVGSPALLESQHPVKEPEDCLRFTLLPDETGLDWALWFEAHRVNAVAPSYGTAFKDGFLTVKAASRGQGLALINDIYVREELADGRLVQLLPGSWPTKFAYYAVALPETFDRPAVKAFVKWLCAACAVEQMHQK | not soluble
3 | MSLEDVIEQLRELNEPVPVPLELPDEDLLVEIEEQLLINLPFELREFLMKVSDVIYGSLEPVTVSDPQSHTYLPEVAAVAWDQGMPRDMVPLCQVGDDYYAVDIEGQVLLWSSDSGELSDESWDSVWHWAKDVWLASEGHHHHHH | not soluble
4 | MSLSSARFDSSDRSAWYMGPVSRQEAQTRLQGQRHGMFLVRDSSTCPGDYVLSVSENSRVSHYIINSLPNRRFKIGDQEFDHLPALLEFYKIHYLDTTTLIEPAPRYPSPPMGSVSAPNLPTAEDNLEYVRTLYDFPGNDAEDLPFKKGEILVIIEKPEEQWWSARNKDGRVGMIPVPYVEKLVRSSPHGKHGNRNSNSYGIPEPAHAYAQPQTTTPLPAVSGSPGAAITPLPSTQNGPVFAKAIQKRVPCAYDKTALALEVGDIVKVTRMNINGQWEGEVNGRKGLFPFTHVKIFDPQNPDENEGHHHHHH | soluble
5 | MGSDKIHHHHHHMSELKLPKDDRSIEVYRLSGTPVAVEKRSAADFNRVAFAAAHVVADPFADNDPWLTPAIDWEATLRFRHRLWDLGLGVAEAMDTAQRGMGLAWPQAQELISRSLKEAASRKDALIACGVGTDHLDSGGYDLNQIIDSYLEQLDFVQGEGGRVILMASRALAAAARSPDDYLKAYARVLSRAEQKVVIHWLGEMFDPALKGYWGSGDHMAAMETCLAMIEENAEKIDGIKISLLSKDKEIVMRRRLPAGVRMYTGDDFNYAELIAGDEQGHSDALLGIFDAIAPAASKALASLKRGADNEFFDILEPTVALSRHIFKAPTRFYKTGVVFLAYLNGLQDHFTMVGGQESTRSTQHFTELFRLADKANVLAEPDLATHRMKAFLAVRGIG | not soluble
6 | EFPEITEEMEKEIKNVFRNGNQDEVLSEAFRLTITRKDIQTLNHLNWLNDEIINFYMNMLMERSKEKGLPSVHAFNTFFFTKLKTAGYQAVKRWTKKVDVFSVDILLVPIHLGVHWCLAVVDFRKKNITYYDSMGGINNEACRILLQYLKQESIDKKRKEFDTNGWQLFSKKSQEIPQQMNGSDCGMFACKYADCITKDRPINFTQQHMPYFRKRMVWEILHRKLL | soluble
7 | MLITEIFHSIQGEGPYAGLPMLFVRTNVCNIRCEWCDTKYSFYGGKEIPLSELLGIVKEAKEGWVCFTGGEPLVQRDALAFVKSVVDMGKNVLIETNGTISIRNFVFSDRIFIDMDVKPPSAKVTKGFLMDNLRYLRKQDYLKIVIKDDTDLDFAIDFVDRYGEGLSFVFQPAWGSDIRRIADRIVGTGYNVRVLPQIHKIIYGDVPGV | not soluble
8 | MGSDKIHHHHHHKRQVSGDESYLDAAPLAELHAPAGMILPITTGDYVIPVTKGSGAVGKALDIRPPAQPLALVSGARTQFSGDTATLLVENGRSSTLWPQVVSVIQAKNYPIEKRDDASQTLTTDWVNWNRLDEDEQYRGRYQISVKPQGYQQAVTVKLVNLEQAGKPVADAASLQRYSTEMMNVISAGLDKTATDAANAAQNRSAATMDVQSAADDTGLPMLVVRGPFNLVWQRLPAALEKVGMKVTDSTRSQGSMAVTYKPLSDSDWRDLGASDPGLASGDYKLQVGDLDNRSSLQFIDPKGHTLTQSQNDALVAVFQAAFNK | not soluble
9 | SRTVIPGAVKYTLVYDNGSSQAVIATAPEITPTELEATLRQAASHLYSYGRLGSRGNNQLTIRARTIIHAEPGVSVPVYLGKVQRTLTTREDPEMAVEVYLDKFAQLSKPTA | not soluble
10 | MPELAISTDKVAFLIEKAREFDVKEGESDADSGSNGADDDMVDVLEDTGDDPVVQEISGFIAAMTEEEQIDLVALMRLGRGDGSIEEWDDLRREAAEGRNGRTARYLLGEPLLGDYLADGLDQFGLSWSDERTTPVV | not soluble
11 | MNDFYVTLPSSVKNAQFENTSSRYVTRLPQVLHLEKDEYSVAVTDIIYPYSFVNLGRPLNYWIHFKNREPINVTFPAAQYDDLPHVVNSLNGVQKPRMKRGAPLILENEQVKRPKSDEPLSERDVIINKIRELEAKAKKDEEERIAREKEEKNKQREKHLATHKKAEEFAKKVQTDKDEQREKHLDTHKKAEQNAQDNQKYHDEERKKHIETQKKAEENEEKRRAKEKADRDAHVARHKQAEALEKKKREQEEKQKNEDRERATQKERREHIERHRQAEARAKALEKEKHEQEEKQKKENLERAEKERHDHIERQRQAEARAKALEQEKQEEKQKNEDRERATQKERREHLERHRQAEARAKALEKEKHERLQQEAKDKEDERARDKARKDAKAREEAKSREDVKAEKVAIDPKQVVNIPGKVYASQEAKKIIEKVNELEKQERDKIVSKVRESEAIEKEAVRASSEYHDVALKIFQKPNDRNIYDELKLSFERIRSRIKVSHFENSSDYLQFGEKDGRVSIDFLDSNILFEEFEKSCAYFLGFHDTIVRESSLAPSKIDYFGNVSTIYLYCDIVDPIIVGDSKNSLLSVIPCKGKYGEMIHHTIPHPRYLPIMNSTIDSIKIELLSEFAEPINFNWGSTVIVLHFKKI | not soluble
12 | MSSVPSAHSEIVGALYRDHRGWLLAWLRRNVACPQRAQDLSQDTFVRLLGRDELQLPREPRAFLATIAKGLMFDYFRRAALEQAYLGELLQVPEAEQPSPEEQLLILEDLKAIDRMLGTLSSKARAAFLYNRLDGLSHGEIAERLGVSVSRVRQYLAQAVRQCYVALYGEPT | not soluble
13 | MSLNEVHSIHGHTLLLITKPSLQATALLQHLKQSLAITGKLHNIQRSLDDISSGSIILLDMMEADKKLIHYWQDTLSRKNNNIKILLLNTPEDYPYRDIENWPHINGVFYAMEDQERVVNGLQGVLRGECYFTQKLASYLITHSGNYRYNSTESALLTHREKEILNKLRIGASNNEIARSLFISENTVKTHLYNLFKKIAVKNRTQAVSWANDNLREGHHHHHH | soluble
14 | RSYGPVFEEQPAHTLFPEGSAEEKVTLTCRARANPPATYRWKMNGTELKMGPDSRYRLVAGDLVISNPVKAKDAGSYQCVATNARGTVVSREASLRFGFLQEFSAEERDPVKITEGWGVMFTCSPPPHYPALSYRWLLNEFPNFIPADGRRFVSQTTGNLYIAKTEASDLGNYSCFATSHIDFITKSVFSKFSQLSLAAEDARQYAPSIKAKFPADTYALTGQMVTLECFAFGNPVPQIKWRKLDGSQTSKWLSSEPLLHIQNVDFEDEGTYECEAENIKGRDTYQGRIIIHAQPDWLDVITDTEADIGSDLRWSCVASGKPRPAVRWLRDGQPLASQNRIEVSGGELRFSKLVLEDSGMYQCVAENKHGTVYASAELTVQA | soluble
15 | MGARGRMAASKGAVMSLLLDAYQKRDKLAMVSFRKNEAFVNLPVTSSIELAARMLKEMPVGGRTPFSAGLLKGYEIAQNYLRKEPGGRPLIILVTDGKANRAIGQGKPLDEVFTISEKISREERIRFLVVDTEEPGLVTFGLAKKIAGLLDAWYYRIDDLRADTLVSIVKTMMP | not soluble
16 | MYYDVLKTFIAVVEEKNFTKAAEKLMISQPSVSLHIKNLEKEFQTALLNRSPKHFTTTPTGDILYQRAKQMVFLYEQAKAEIYAHHHYVKGELKIAASFTIGEYILPPLLAQLQKLYPELNLDVMIGNTEEVSERVRMLQADIGLIEGHTNENELEIEPFMEDEMCIAAPNQHPLAGRKEISISDLQNEAWVTREKGSGTREYLDHVLSSNGLRPKSMFTISSNQGVKEAVINGMGLSVLSRSVLRKDLIHREISILHINNFSLKRKLSYIHSPLMENTKNKEIFITMLKSNYQSQLLK | soluble
17 | MASLFTQEIHLSKRHEEILSQRLMLLQKMKNKFGDENTERASLLQATETASRRNLRLLKDIDAAEEAFQTKLIPHPQPSMLSLETRYWASVEEHIPKWELFLLGRAPYPIGAENQNEVPFVQTEATL | soluble
18 | MGSDKIHHHHHHMRVEDILDQLVMQSRDQDGAKYYISLINDMRIDRSVDPVKSIILEILSLCSDGRIDPWDVDLLKFAEIMNSFFGNSFIDFQFAGKAIADAWRVLRIKSDMSPKEQDRQMNDIGCEEPEDTDNFIPQNQVVIQLVPSVLTPQSRPVVLVDLIDEIRRKMYSSRLQKKKVDVHIEFDSSKLNPDRSEEMIEKTYRAIIESGKQKVFMSEIWGNTRRERAVFFLYSMFLFRDGRISLSQEEPNGDILIETNVI | not soluble
19 | CIAGHSRGGLIALIAAALKGKWAIAVSAPSDRRKQKEYLSKFPPGTVQYNIYQDLMKMPEYELEYSSLSYADRLKKVLLIHGEDDEMVLKEHSITLCDTIKRMGGDCELHIIPKMKHTPLGQQYQTIWSIIEDWIKRNS | not soluble
20 | MSLTTSFQDTEFFENQIFNTGKYNCLILRTAMNVLREHANLDIVYGGRAIRQLIYETVDTISAMEGVDKKATWLKLISLCDQFRKTGQESLSLAEYTEDFNFESIALQVDAFSLFAKPHDFQVFSVFLEDSEKGKLATILSSLTQKFSNKSRFKICQALLERGQISSSSATELYDEFIQSKVDDTEAIDFQNRLAEVSLKTIREMIFSKTREEDTEMRTASDSSVSPFLRLNAISSLRDIKDAHEKILIDMAIIFLLFDPREETVELLNAIVKRLSSYAMLEHIFCTCFNDQGTELESHSLSKPENSVFWISVADKFPALKQLINGGDMAGAFDYLVEKLDKSYDEVILNVVIELLNRGNGEVVRKNYIKSLNPNRLIDRILIGLVYLLTDDVDNFRATFEDFAETLLLQNEQNKTDAPLEDRLNYKKEVSDLLNAVFASSSNPAAQKSNYYHTLFALAKSQAKVLRHRSHENIISPNSTSSAEAKFIKAALLFEQKAISYLKQVVKSEHLKFNLDDAYLNVYELGLYLQDYKSVYESLQNLSPVADEYDYNYLMKRYLSRLISQGSISTIFPPNDNKLYRDNYLLIDSVLLDLANNELVLASALTFYEYLYSWRLLGSATKVDPTELTDKRGAAEALYMFITRFKLEQPDLLSSTSEQSEDIKQYKLKVLELYLMILNCLQSFESIEDQWLVKSQTNDSLAVVKLNEITLEYYNWLKEIKDEEGHHHHHH | not soluble
21 | MGSDKIHHHHHHMNFPELKLSQTERDFNFDFAILEHDLSYFFEKRCLDYALEHINRFNHKIKDNLYNVRPLILKEALISLTCDLASVSFYHYLNMITFVNLRKDILHYLTTTTLTNDDFMPLLESIVNNYFSNLDTLDIPIDGTRLSKQVALVVYYIDNHCDEPLRANTILEELTLDPEYTKRKFRKELGFTINFYIRHAKLQRAKQLLINTHLPIGEIAERINFYNSAEFARQFQKEFDITPSKYRELNQIFYKEE | not soluble
